The chains are these.
B1: Hairpin Ribozyme (parent)
chain: GUCCUCUUUCACGUGCGCGUGAAAGAGAGAAGUGAACCAGAGAAACACACGUUGUGGUAUAUUACCUGGUA

Variants of B1 are the subject of the series. The experiment in a line: self-cleavage, relative activity (ratio to wild type); higher = more cleavage; co-transcriptional.
As for GUCCUCUUUCACGUGCGCGUGAAAGAGAGAAGUGAACCAGAGAUACACACGUUGUGGUAUAUUAUCUGGUA [A44U C65U], the self-cleavage is 0.14.
To GUCCUCUUUCACGUGCGCGUGAAAGAGAGAAGUGAACCAGAGAUACACACGUUGUGGUAUAUUACCUGGUA [A44U] belongs 0.141; to GUCCUCUUUCACGUGCGCGUGAAAGAGAGAAGUGAACCAGAGAGACACACGUUGUGGUAUAUUACCUGGUA [A44G], 0.146.
To GUCCUCUUUCACGUGCGCGUGAAAGAGAGAAGUGAACCAGAGAGACACACGAUGUGGUAUAUUACCUGGUA [A44G U52A] belongs 0.246.
To GUCCUCUUUCACGUGCGCGUGAAAGAGAGAAGUGAACCAGAGAGACACACGUUGUGGUAUAUUACCUGGAA [A44G U70A] belongs 0.
Turning to GUCCUCUUUCACGUGCGCGUGAAAGAGAGAAGUGAACCAGAGAGACACACGUUGUGGGAUAUUACCUGGUA [A44G U58G], the self-cleavage came out at 0.198.
On to GUCCUCUUUCACGUGCGCGUGAAAGAGAGAAGUGAACCAGAGACACACACGUGGUGGUAUAUUACCUGGUA [A44C U53G], for which the self-cleavage was 0.0885.
To GUCCUCUUUCACGUGCGCGUGAAAGAGAGAAGUGAACCAGAGAGACACACGUUGCGGUAUAUUACCUGGUA [A44G U55C] belongs 0.0374; to GUCCUCUUUCACGUGCGCGUGAAAGAGAGAAGUGAACCAGAGAGACACACGUUGAGGUAUAUUACCUGGUA [A44G U55A], 0.0483.
As for GUCCUCUUUCACGUGCGCGUGAAAGAGAGAAGUGAACCAGAGACACACACGUUGUGGUUUAUUACCUGGUA [A44C A59U], the self-cleavage was 0.103.
Under GUCCUCUUUCACGUGCGCGUGAAAGAGAGAAGUGAACCAGAGACACACAUGUUGUGGUAUAUUACCUGGUA [A44C C50U] stands 0.15; under GUCCUCUUUCACGUGCGCGUGAAAGAGAGAAGUGAACCAGAGACACACACGUUUUGGUAUAUUACCUGGUA [A44C G54U], 0.194.
For GUCCUCUUUCACGUGCGCGUGAAAGAGAGAAGUGAACCAGAGACACACACGUUAUGGUAUAUUACCUGGUA [A44C G54A], the self-cleavage is 0.184.
To GUCCUCUUUCACGUGCGCGUGAAAGAGAGAAGUGAACCAGAGACACACACGUUCUGGUAUAUUACCUGGUA [A44C G54C] belongs 0.0581; to GUCCUCUUUCACGUGCGCGUGAAAGAGAGAAGUGAACCAGAGAGACACACGUUGUGGUAUAUUACCUAGUA [A44G G68A], 0.155.
To GUCCUCUUUCACGUGCGCGUGAAAGAGAGAAGUGAACCAGAGAGACACACGUUGUGGUAUAUUACCUCGUA [A44G G68C] belongs 0.244.
Under GUCCUCUUUCACGUGCGCGUGAAAGAGAGAAGUGAACCAGAGACACACACGUUGUUGUAUAUUACCUGGUA [A44C G56U] stands 0.241; under GUCCUCUUUCACGUGCGCGUGAAAGAGAGAAGUGAACCAGAGACACACACGUUGUGCUAUAUUACCUGGUA [A44C G57C], 0.215.
For the variant GUCCUCUUUCACGUGCGCGUGAAAGAGAGAAGUGAACCAGAGACACACACGUUGUGAUAUAUUACCUGGUA [A44C G57A], the self-cleavage came out at 0.135.
To GUCCUCUUUCACGUGCGCGUGAAAGAGAGAAGUGAACCAGAGACACACACGUUGUGGUAUACUACCUGGUA [A44C U62C] belongs 0.279; to GUCCUCUUUCACGUGCGCGUGAAAGAGAGAAGUGAACCAGAGACACACACGUUGUGGUAUAUUACCCGGUA [A44C U67C], 0.099.
To GUCCUCUUUCACGUGCGCGUGAAAGAGAGAAGUGAACCAGAGACACACACGUUGUGGUAUAUUACCGGGUA [A44C U67G] belongs 0.094.
To GUCCUCUUUCACGUGCGCGUGAAAGAGAGAAGUGAACCAGAGACACACACCUUGUGGUAUAUUACCUGGUA [A44C G51C] belongs 0.289.
In the case of GUCCUCUUUCACGUGCGCGUGAAAGAGAGAAGUGAACCAGAGAUACACACGUUGUGGUAUACUACCUGGUA [A44U U62C], the self-cleavage is 0.0868.
GUCCUCUUUCACGUGCGCGUGAAAGAGAGAAGUGAACCAGAGACACACACGUUGUGGUAUAUUACCUGGUG [A44C A71G]: the self-cleavage was 0.211.
To GUCCUCUUUCACGUGCGCGUGAAAGAGAGAAGUGAACCAGAGAUACACACGUUGUCGUAUAUUACCUGGUA [A44U G56C] belongs 0.239; to GUCCUCUUUCACGUGCGCGUGAAAGAGAGAAGUGAACCAGAGAGACACACGUUUUGGUAUAUUACCUGGUA [A44G G54U], 0.16.
Under GUCCUCUUUCACGUGCGCGUGAAAGAGAGAAGUGAACCAGAGAGACACACGUUGUGGUAUAUUACCUGGUU [A44G A71U] stands 0.158.
Under GUCCUCUUUCACGUGCGCGUGAAAGAGAGAAGUGAACCAGAGAUACACACGUUGUGGUAUAUUACCUGCUA [A44U G69C] stands 0.159.
With GUCCUCUUUCACGUGCGCGUGAAAGAGAGAAGUGAACCAGAGAGACACACGUUGUGGUUUAUUACCUGGUA [A44G A59U], the self-cleavage was 0.155.
To GUCCUCUUUCACGUGCGCGUGAAAGAGAGAAGUGAACCAGAGAGACACACGUUGUGGUCUAUUACCUGGUA [A44G A59C] belongs 0.179; to GUCCUCUUUCACGUGCGCGUGAAAGAGAGAAGUGAACCAGAGAUACAGACGUUGUGGUAUAUUACCUGGUA [A44U C48G], 0.12; to GUCCUCUUUCACGUGCGCGUGAAAGAGAGAAGUGAACCAGAGAUACACACGUUGUGGUAUAUUACGUGGUA [A44U C66G], 0.183.
Under GUCCUCUUUCACGUGCGCGUGAAAGAGAGAAGUGAACCAGAGAGACACACGUUGUGGUAUAUUACCAGGUA [A44G U67A] stands 0.161; under GUCCUCUUUCACGUGCGCGUGAAAGAGAGAAGUGAACCAGAGAGACACACGUUGUGGUAUAUUACCGGGUA [A44G U67G], 0.149.
Under GUCCUCUUUCACGUGCGCGUGAAAGAGAGAAGUGAACCAGAGAUACACACGAUGUGGUAUAUUACCUGGUA [A44U U52A] stands 0.237; under GUCCUCUUUCACGUGCGCGUGAAAGAGAGAAGUGAACCAGAGACACACACGUUGUGGUAUCUUACCUGGUA [A44C A61C], 0.288; under GUCCUCUUUCACGUGCGCGUGAAAGAGAGAAGUGAACCAGAGAUCCACACGUUGUGGUAUAUUACCUGGUA [A44U A45C], 0.321.

Values taken from the RNAGym collection of RNA variant scans (doi:10.7554/elife.80360).
